Test results from patent publication US20110003315A1.

Target: mouse VLDLR (skeletal muscle) (mouse) (UniProt P98156)
Test: cell-based or functional assay

Chain of mouse VLDLR (skeletal muscle) (mouse) (P98156 28-873): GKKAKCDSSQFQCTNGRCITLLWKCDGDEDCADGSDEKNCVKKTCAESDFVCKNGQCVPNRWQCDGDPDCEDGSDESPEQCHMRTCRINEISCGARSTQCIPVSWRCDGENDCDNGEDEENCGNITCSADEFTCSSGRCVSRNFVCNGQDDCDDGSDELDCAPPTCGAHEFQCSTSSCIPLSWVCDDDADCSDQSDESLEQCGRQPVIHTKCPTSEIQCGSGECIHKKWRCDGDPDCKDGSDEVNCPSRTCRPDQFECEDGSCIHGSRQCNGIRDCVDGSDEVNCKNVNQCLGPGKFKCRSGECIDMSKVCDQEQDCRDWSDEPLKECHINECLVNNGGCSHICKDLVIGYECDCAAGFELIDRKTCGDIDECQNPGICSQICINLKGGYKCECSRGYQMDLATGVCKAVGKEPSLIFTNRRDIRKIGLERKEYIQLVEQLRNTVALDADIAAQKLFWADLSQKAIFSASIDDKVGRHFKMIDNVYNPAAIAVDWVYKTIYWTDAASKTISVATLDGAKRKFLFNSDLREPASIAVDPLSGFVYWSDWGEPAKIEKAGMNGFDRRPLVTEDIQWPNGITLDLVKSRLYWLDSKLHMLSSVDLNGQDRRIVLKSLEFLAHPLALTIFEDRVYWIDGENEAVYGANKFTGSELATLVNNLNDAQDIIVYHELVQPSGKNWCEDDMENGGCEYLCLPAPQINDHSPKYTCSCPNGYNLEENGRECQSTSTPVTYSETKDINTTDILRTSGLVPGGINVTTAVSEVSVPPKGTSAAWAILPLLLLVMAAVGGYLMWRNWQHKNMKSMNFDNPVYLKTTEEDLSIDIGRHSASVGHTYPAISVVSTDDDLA

Question: With “wild type human PCSK9 with C-terminal V5 tag (from UniProt Q8NBP7 31-692) (enzyme)” as the substance, how does the level of VLDLR in muscle of transgenic mice against non-transgenic control littermates read?
Answer: < 3 fold
